Results on two molecules are retold here after PMC7897774.

In this experiment the target is HLA-A*02:01. As to the kind of experiment: differential scanning fluorimetry. On the technique in general: In DSF a fluorescence change marks the thermal transition of the protein.

As to “F7A-modified PMEL_(209(2M)–217) epitope (peptide)”, the Tm of the peptide/HLA-A*02:01 complex is 61.7 °C.

B1: PMEL_(209(2M)–217) epitope (…) (peptide)
peptide: IMDQVPFSV
As for B1, the Tm of the peptide/HLA-A*02:01 complex is 61.9 °C.
